Source: patent publication US20020031761A1, “Binding moieties for human parvovirus B19” (priority 1998, published 2002)
No end group written: not given here.

Legend:
VP1-VP2 = VP1-VP2 (Human parvovirus B19, UniProt P07299); assay: Relative binding ELISA, constant phage against decreasing amounts of VP1-VP2; conditions: signal interpolated at VP1-VP2 1:10 dilution; binding data normalized as percent of OD 630 nm
Description: Based on the ELISA data and the sequence similarities within each library, the 18 isolates (Tables 1-3) were selected and evaluated further with respect to their binding characteristics to VP1-VP2. Relative binding of each isolate was studied by ELISA. Each selected phage isolate, held at a constant amount, was contacted with decreasing amounts per well of VP1-VP2, the amounts coating each dextrin well varying from 2 μl down to 0.001 μl. Bound phage were detected as described before using polyclonal anti-phage antibody. […] Using VP1-VP2 at 1:10 dilution as an arbitrary point, a value for the signal was interpolated, and the relative binding strengths are reflected in Tables 1-3, above.

[1] = target: VP1-VP2 (purified, recombinant B19 capsid proteins VP1 and VP2) (Human parvovirus B19, UniProt P07299); assay: ELISA of individual phage isolates for binding to VP1-VP2; conditions: phage isolate 10^9 pfu per well; VP1-VP2 2 μl per well on dextrin plates; HRP anti-M13 antibody, TMB
Source text: For screening libraries to isolate binding moieties for parvovirus B19, a surrogate target was obtained, consisting of purified, recombinant B19 capsid proteins VP 1 and VP2 (VP1-VP2). Suitable preparations of VP1-VP2 can be made according to methods described in U.S. Pat. No. 5,498,413 or WO 91/12269, incorporated herein by reference. Prior to screening against phage display libraries, partially purified VP1-VP2 was immobilized on dextrin-coated microtiter wells (Recti-Bind™; Pierce Chemical Co.) and tested using standard ELISA techniques, to ensure that under the screening conditions there was a low background level of phage recovered.
From convergent screens of phage display libraries, eluted phage were propagated and 376 phage isolates were selected randomly and individually tested for binding to VP1-VP2 by standard ELISA techniques, using a polyclonal anti-phage antibody to detect bound phage. Briefly, VP1-VP2 (2 μl per well) was coated on dextrin plates, blocked with BSA, and individual phage isolates were added to the wells (50 μl, 10^9 pfu per well). After washing, bound phage were incubated with the detection anti-phage antibodies (100 μl per well HRP-conjugated anti-M13 antibody in PBS-Tween (Pharmacia Inc.)). […] The bound antibody was detected by adding 100 μl per well of two-component TMB (tetramethylbenzidine; Kirkegaard & Perry). […]

A F C W L W P G N C L H (AFCWLWPGNCLH; not fully specified; cysteine pairing not given here) [C01]
relative binding (VP1-VP2): 44 | ELISA signal [1]: 1.5
